Results: article PMC10937712, “Natural variation in OsMYB8 confers diurnal floret opening time divergence between indica and japonica subspecies”

T1: OsMYB8 (Oryza sativa, UniProt A0A0P0V5Q1 51-278)
T1 sequence: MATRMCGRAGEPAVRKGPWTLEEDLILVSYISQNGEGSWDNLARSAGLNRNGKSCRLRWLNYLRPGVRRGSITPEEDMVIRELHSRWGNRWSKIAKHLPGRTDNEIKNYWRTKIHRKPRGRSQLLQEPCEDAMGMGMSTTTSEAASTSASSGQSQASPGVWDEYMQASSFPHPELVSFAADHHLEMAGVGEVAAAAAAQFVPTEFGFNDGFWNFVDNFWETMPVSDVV


Molecular target: T1, OsMYB8
Assay: EMSA; Beyotime chemiluminescent EMSA kit binding buffer (composition, salt, pH not stated), 20 min, room temperature, 5% native PAGE; 5x and 20x cold competitor
Conditions: protein: recombinant; tags: N-terminal GST (pGEX-4T1); label: biotin; blunt

| Binder | binding result |
| --- | --- |
| JAR1-P3-probe (dsDNA) DNA 1: CAGTGTACCTAGTGATGTACCCGCCGAATACGTACGCGTGTATGCATGGGTAGAGA DNA 2: TCTCTACCCATGCATACACGCGTACGTATTCGGCGGGTACATCACTAGGTACACTG | binds |
| JAR1-P1-probe (dsDNA) DNA 1: AAAATAAATGACTTAGGAAAGAACCAAAACATCTTACATTATAGTATAAAGAAG DNA 2: CTTCTTTATACTATAATGTAAGATGTTTTGGTTCTTTCCTAAGTCATTTATTTT | binds |
